In IntAct's records for PubMed 21209328:

B1: PEP-dependent dihydroxyacetone kinase, ADP-binding subunit DhaL (Escherichia coli (strain K12)), P76014 (parent)
chain: MSLSRTQIVNWLTRCGDIFSTESEYLTGLDREIGDADHGLNMNRGFSKVVEKLPAIADKDIGFILKNTGMTLLSSVGGASGPLFGTFFIRAAQATQARQSLTLEELYQMFRDGADGVISRGKAEPGDKTMCDVWVPVVESLRQSSEQNLSVPVALEAASSIAESAAQSTITMQARKGRASYLGERSIGHQDPGATSVMFMMQMLALAAKE
partner: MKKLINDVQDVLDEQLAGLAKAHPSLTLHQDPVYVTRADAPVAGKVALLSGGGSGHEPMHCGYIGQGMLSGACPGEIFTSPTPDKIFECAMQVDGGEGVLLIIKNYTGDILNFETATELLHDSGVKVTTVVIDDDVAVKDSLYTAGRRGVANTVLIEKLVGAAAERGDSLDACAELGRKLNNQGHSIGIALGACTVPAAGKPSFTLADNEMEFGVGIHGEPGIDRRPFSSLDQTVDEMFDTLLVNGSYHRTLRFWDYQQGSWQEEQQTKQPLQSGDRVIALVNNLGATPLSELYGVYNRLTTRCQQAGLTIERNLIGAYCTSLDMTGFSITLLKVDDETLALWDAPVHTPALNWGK

Variants of: B1
Settings: with dhak_ecoli dhaK

Question: How did the “effect of a mutation on the interaction” value turn out when R178E was run?
Answer: disrupting interaction strength
